Each block holds one binder with its values, some of them ahead of it.
Legend:
[1] = biological target: T1, recombinant human CD3 epsilon/delta heterodimer (human, UniProt P07766 23-126; P04234 22-105); test: Octet BLI, mAb on FAB2G sensor, hCD3 E/D 200-50 nM; R^2 0.96
T1 construct: Recombinant protein in solution (200-50 nM) in the Octet assay; also called hCD3 E/D; human CD3E/D

[2] = biological target: T2, recombinant human CD3 epsilon/gamma heterodimer (human, UniProt P07766 23-126; P09693 23-116); test: Octet BLI, mAb on FAB2G sensor, hCD3 E/G 200-50 nM; R^2 0.96
T2 construct: Recombinant protein in solution (200-50 nM) in the Octet assay; also called hCD3 E/G

recombinant CD3 proteins [3] = test: Octet (BLI), bispecific antibody against recombinant CD3 proteins
[4] = biological target: CD3 on effector cells (human Pan-T or PBMC) (human, UniProt P07766 23-207; P04234 22-171; P09693 23-182; P20963 22-164); test: cell-based or functional assay
[5] = biological target: T3, human CD3 (TCR/CD3 complex) on the cell surface (human, UniProt P07766 23-207; P09693 23-182; P04234 22-171; P20963 22-164); test: flow cytometry, Pan-T cells, 10 ug/mL
T3 construct: whole, on cells; also called CD3 on Pan-T cells; CD3 on Jurkat WT cells

[6] = biological target: T3, human CD3 (TCR/CD3 complex) on the cell …; test: flow cytometry, Pan-T cells, 1 ug/mL
[7] = biological target: T3, human CD3 (TCR/CD3 complex) on the cell …; test: flow cytometry, gMFI Jurkat WT over Jurkat TCRb KO, 10 ug/mL
[8] = biological target: T3, human CD3 (TCR/CD3 complex) on the cell …; test: flow cytometry, gMFI Jurkat WT over Jurkat TCRb KO, 1 ug/mL
recombinant CD3 proteins [9] = biological target: T4, recombinant CD3 proteins (UniProt P07766 23-126); test: Octet BLI, recombinant CD3; Full R^2 0.995
T4 construct: elsewhere it uses human CD3 E/D and E/G heterodimers

[10] = biological target: T3, human CD3 (TCR/CD3 complex) on the cell …; test: flow cytometry, Jurkat WT cells, 1 ug/mL
[11] = biological target: T3, human CD3 (TCR/CD3 complex) on the cell …; test: flow cytometry, Jurkat WT cells, 10 ug/mL
[12] = biological target: T2, recombinant human CD3 epsilon/gamma …; test: Octet BLI, mAb on FAB2G sensor, hCD3 E/G 200-50 nM; R^2 0.94
[13] = biological target: T1, recombinant human CD3 epsilon/delta …; test: Octet BLI, mAb on FAB2G sensor, hCD3 E/D 200-50 nM; R^2 0.94

T3 sequence (P07766 23-207, chain 1 of 4): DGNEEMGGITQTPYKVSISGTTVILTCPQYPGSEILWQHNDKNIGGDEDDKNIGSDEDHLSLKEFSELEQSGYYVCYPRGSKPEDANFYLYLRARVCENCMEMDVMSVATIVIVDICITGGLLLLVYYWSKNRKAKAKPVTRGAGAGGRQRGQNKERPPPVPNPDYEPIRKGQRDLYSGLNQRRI
T3 sequence (P09693 23-182, chain 2 of 4): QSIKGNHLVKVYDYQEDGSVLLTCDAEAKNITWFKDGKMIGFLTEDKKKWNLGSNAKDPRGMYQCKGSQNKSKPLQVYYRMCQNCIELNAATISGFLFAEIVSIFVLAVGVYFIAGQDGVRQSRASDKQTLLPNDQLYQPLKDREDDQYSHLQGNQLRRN
T3 sequence (P04234 22-171, chain 3 of 4): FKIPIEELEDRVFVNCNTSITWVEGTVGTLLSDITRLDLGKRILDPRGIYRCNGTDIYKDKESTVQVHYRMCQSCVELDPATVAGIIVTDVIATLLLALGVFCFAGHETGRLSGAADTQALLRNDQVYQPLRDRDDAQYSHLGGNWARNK
T3 sequence (P20963 22-164, chain 4 of 4): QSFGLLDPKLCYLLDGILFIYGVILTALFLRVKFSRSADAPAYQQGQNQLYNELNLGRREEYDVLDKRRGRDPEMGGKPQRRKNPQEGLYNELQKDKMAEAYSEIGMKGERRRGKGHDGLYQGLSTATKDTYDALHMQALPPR
T4 sequence (P07766 23-126): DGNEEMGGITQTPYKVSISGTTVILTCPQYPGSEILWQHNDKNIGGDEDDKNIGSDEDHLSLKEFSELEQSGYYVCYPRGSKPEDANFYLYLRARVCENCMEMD
T1 sequence (P07766 23-126, stated change not applied, chain 1 of 2): as the sequence (P07766 23-126) above
T1 sequence (P04234 22-105, stated change not applied, chain 2 of 2): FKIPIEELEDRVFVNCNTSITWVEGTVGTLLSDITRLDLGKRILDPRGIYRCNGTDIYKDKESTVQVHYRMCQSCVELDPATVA
T2 sequence (P07766 23-126, chain 1 of 2): as the sequence (P07766 23-126) above
T2 sequence (P09693 23-116, chain 2 of 2): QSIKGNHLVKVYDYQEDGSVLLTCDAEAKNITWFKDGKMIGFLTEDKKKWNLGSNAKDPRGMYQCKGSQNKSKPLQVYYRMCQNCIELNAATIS
CD3 on effector cells (human Pan-T or PBMC), sequence (P07766 23-207, chain 1 of 4): as the sequence (P07766 23-207, chain 1 of 4) above
CD3 on effector cells (human Pan-T or PBMC), sequence (P04234 22-171, chain 2 of 4): as the sequence (P04234 22-171, chain 3 of 4) above
CD3 on effector cells (human Pan-T or PBMC), sequence (P09693 23-182, chain 3 of 4): as the sequence (P09693 23-182, chain 2 of 4) above
CD3 on effector cells (human Pan-T or PBMC), sequence (P20963 22-164, chain 4 of 4): as the sequence (P20963 22-164, chain 4 of 4) above

B2: Control Humanized anti-CD3 (high affinity) scFv-Fc knob/TM, as bispecific with gemtuzumab (bispecific antibody)
scFv: EVQLVESGGGLVQPGGSLRLSCAASGFTFSTYAMNWVRQAPGKGLEWVGRIRSKYNNYATYYADSVKGRFTISRDDSKNTLYLQMNSLRAEDTAVYYCVRHGNFGDSYVSWFAYWGQGTLVTVSSGKPGSGKPGSGKPGSGKPGSQAVVTQEPSLTVSPGGTVTLTCGSSTGAVTTSNYANWVQQKPGKSPRGLIGGTNKRAPGVPARFSGSLLGGKAALTISGAQPEDEADYYCALWYSNHWVFGGGTKLTVLGGGGSDKTHTCPPCPAPEFEGGPSVFLFPPKPKDTLMISRTPEVTCVVVDVSHEDPEVKFNWYVDGVEVHNAKTKPREEQYNSTYRVVSVLTVLHQDWLNGKEYKCKVSNKALPASIEKTISKAKGQPREPQVYTLPPCREEMTKNQVSLWCLVKGFYPSDIAVEWESNGQPENNYKTTPPVLDSDGSFFLYSKLTVDKSRWQQGNVFSCSVMHEALHNHYTQKSLSLSPGK
heavy: EVQLVQSGAEVKKPGSSVKVSCKASGYTITDSNIHWVRQAPGQSLEWIGYIYPYNGGTDYNQKFKNRATLTVDNPTNTAYMELSSLRSEDTAFYYCVNGNPWLAYWGQGTLVTVSSASTKGPSVFPLAPSSKSTSGGTAALGCLVKDYFPEPVTVSWNSGALTSGVHTFPAVLQSSGLYSLSSVVTVPSSSLGTQTYICNVNHKPSNTKVDKRVEPKSCDKTHTCPPCPAPEFEGGPSVFLFPPKPKDTLMISRTPEVTCVVVDVSHEDPEVKFNWYVDGVEVHNAKTKPREEQYNSTYRVVSVLTVLHQDWLNGKEYKCKVSNKALPASIEKTISKAKGQPREPQVCTLPPSREEMTKNQVSLSCAVKGFYPSDIAVEWESNGQPENNYKTTPPVLDSDGSFFLVSKLTVDKSRWQQGNVFSCSVMHEALHNRFTQKSLSLSPGK
light: DIQLTQSPSTLSASVGDRVTITCRASESLDNYGIRFLTWFQQKPGKAPKLLMYAASNQGSGVPSRFSGSGSGTEFTLTISSLQPDDFATYYCQQTKEVPWSFGQGTKVEVKRTVAAPSVFIFPPSDEQLKSGTASVVCLLNNFYPREAKVQWKVDNALQSGNSQESVTEQDSKDSTYSLSSTLTLSKADYEKHKVYACEVTHQGLSSPVTKSFNRGEC
Kd (recombinant CD3 proteins [3]): 20.1 nM
Response (recombinant CD3 proteins [3]): 0.73
koff (recombinant CD3 proteins [3]): 0.00652 s⁻¹
kon (recombinant CD3 proteins [3]): 325000 M⁻¹ s⁻¹
RTCC EC50 (nM), KILR HL-60 T Cell Redirection cytotoxic assay with CD33-expressing target cells [4]: 0.03 nM

B3: CD3 × CD33-BspAb126 (bispecific antibody)
chain 1: QVQLQESGPGLVKPSETLSLTCTVSGGSINSYYWSWIRQPAGKCLEWIGRIYTSGSTNYNPSLKSRVTMSVDTSKKQFSLKLSSVTAADTAVYYCARERISRLYFDYWGQGILVTVSSGGGGSGGGGSGGGGSGGGGSNFMLTQPHSVSESPGKTVTISCTRSSGSIASNYVQWYQQRPGSSPTTVIYEDNQRPSGVPDRFSGSIDSSSNSASLTISGLKTEDEADYYCQSYDRSNRVFGCGTKLTVLDKTHTCPPCPAPEFEGGPSVFLFPPKPKDTLMISRTPEVTCVVVDVSHEDPEVKFNWYVDGVEVHNAKTKPREEQYNSTYRVVSVLTVLHQDWLNGKEYKCKVSNKALPASIEKTISKAKGQPREPQVYTLPPCREEMTKNQVSLWCLVKGFYPSDIAVEWESNGQPENNYKTTPPVLDSDGSFFLYSKLTVDKSRWQQGNVFSCSVMHEALHNHYTQKSLSLSPGK
chain 2: EVQLVQSGAEVKKPGSSVKVSCKASGYTITDSNIHWVRQAPGQSLEWIGYIYPYNGGTDYNQKFKNRATLTVDNPTNTAYMELSSLRSEDTAFYYCVNGNPWLAYWGQGTLVTVSSASTKGPSVFPLAPSSKSTSGGTAALGCLVKDYFPEPVTVSWNSGALTSGVHTFPAVLQSSGLYSLSSVVTVPSSSLGTQTYICNVNHKPSNTKVDKRVEPKSCDKTHTCPPCPAPEFEGGPSVFLFPPKPKDTLMISRTPEVTCVVVDVSHEDPEVKFNWYVDGVEVHNAKTKPREEQYNSTYRVVSVLTVLHQDWLNGKEYKCKVSNKALPASIEKTISKAKGQPREPQVCTLPPSREEMTKNQVSLSCAVKGFYPSDIAVEWESNGQPENNYKTTPPVLDSDGSFFLVSKLTVDKSRWQQGNVFSCSVMHEALHNRFTQKSLSLSPGK
chain 3: DIQLTQSPSTLSASVGDRVTITCRASESLDNYGIRFLTWFQQKPGKAPKLLMYAASNQGSGVPSRFSGSGSGTEFTLTISSLQPDDFATYYCQQTKEVPWSFGQGTKVEVKRTVAAPSVFIFPPSDEQLKSGTASVVCLLNNFYPREAKVQWKVDNALQSGNSQESVTEQDSKDSTYSLSSTLTLSKADYEKHKVYACEVTHQGLSSPVTKSFNRGEC
% Positive [5]: 99.7%
gMFI [5]: 161000 gMFI
% Positive [6]: 98.3%
gMFI [6]: 56000 gMFI
Jurkat WT/KO (Fold) [7]: 8.8 fold
Jurkat WT/KO (Fold) [8]: 5.3 fold
Kd (recombinant CD3 proteins [9]): 78.4 nM
koff (recombinant CD3 proteins [9]): 0.0117 s⁻¹
kon (recombinant CD3 proteins [9]): 149000 M⁻¹ s⁻¹
gMFI [10]: 15700 gMFI
gMFI [11]: 26000 gMFI

B5: ABL-CD3-29 (antibody, V domains shown)
VH: EVQLVQSGAEVKKPGESLKISCKGSGYSFISYWIAWVRQMPGKGLEWMGIIYPGDSETRYRPSFQGQVTISADKSINTAYLQWSSLKAADTAMYYCARQGAYDGFDIWGQGTMVTVSS
VL: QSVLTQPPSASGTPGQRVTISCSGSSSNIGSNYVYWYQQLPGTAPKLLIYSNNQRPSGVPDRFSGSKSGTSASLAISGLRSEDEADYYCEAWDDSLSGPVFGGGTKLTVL
notes: Chimeric hybridoma mAb: human V, CH1, upper hinge; mouse middle hinge, CH2, CH3
Kd [12]: 2.5 nM
Response [12]: 0.44
koff [12]: 0.000852 s⁻¹
kon [12]: 341000 M⁻¹ s⁻¹
Kd [13]: 2.63 nM
koff [13]: 0.000816 s⁻¹
kon [13]: 310000 M⁻¹ s⁻¹

More lines, main results first:

Kd [1]: 56.2 nM
Response [1]: 0.33
koff [1]: 0.0206 s⁻¹
kon [1]: 366000 M⁻¹ s⁻¹
Kd [2]: 60 nM
koff [2]: 0.0155 s⁻¹
kon [2]: 259000 M⁻¹ s⁻¹
B1: ABL-CD3-33 (antibody, V domains shown)
VH: EVQLVESGGGLVKPGGSLRLSCAASGFTFSSYSMNWVRQAPGKGLEWVSSISRSSSYIYYADSVKGRFTISRDNAKNSLYLQMNSLRAEDTAVYYCAREPPTLGMDYWGQGTLVTVSS
VL: NFMLTQPHSVSESPGKTVTISCTRSSGSIASNYVQWYQQRPGSSPTTVIYEDNQRPSGVPDRFSGSIDSSSNSASLTISGLKTEDEADYYCQSYYNSNRVFGGGTKLTVL
notes: as for B5

Kd (recombinant CD3 proteins [3]): 50.3 nM
Response (recombinant CD3 proteins [3]): 0.3
koff (recombinant CD3 proteins [3]): 0.0121 s⁻¹
kon (recombinant CD3 proteins [3]): 241000 M⁻¹ s⁻¹
B4: Control Humanized anti-CD3 (low affinity) scFv-Fc knob/TM, as bispecific with gemtuzumab (bispecific antibody)
scFv: EVQLVESGGGLVQPGGSLRLSCAASGFTFSTYAMNWVRQAPGKGLEWVGRIRSKYNNYATYYADSVKGRFTISRDDSKNTLYLQMNSLRAEDTAVYYCVRHGNFGDSYVSWFDYWGQGTLVTVSSGKPGSGKPGSGKPGSGKPGSQAVVTQEPSLTVSPGGTVTLTCGSSTGAVTTSNYANWVQQKPGKSPRGLIGGTNKRAPGVPARFSGSLLGGKAALTISGAQPEDEADYYCALWYSNHWVFGGGTKLTVLGGGGSDKTHTCPPCPAPEFEGGPSVFLFPPKPKDTLMISRTPEVTCVVVDVSHEDPEVKFNWYVDGVEVHNAKTKPREEQYNSTYRVVSVLTVLHQDWLNGKEYKCKVSNKALPASIEKTISKAKGQPREPQVYTLPPCREEMTKNQVSLWCLVKGFYPSDIAVEWESNGQPENNYKTTPPVLDSDGSFFLYSKLTVDKSRWQQGNVFSCSVMHEALHNHYTQKSLSLSPGK
heavy: EVQLVQSGAEVKKPGSSVKVSCKASGYTITDSNIHWVRQAPGQSLEWIGYIYPYNGGTDYNQKFKNRATLTVDNPTNTAYMELSSLRSEDTAFYYCVNGNPWLAYWGQGTLVTVSSASTKGPSVFPLAPSSKSTSGGTAALGCLVKDYFPEPVTVSWNSGALTSGVHTFPAVLQSSGLYSLSSVVTVPSSSLGTQTYICNVNHKPSNTKVDKRVEPKSCDKTHTCPPCPAPEFEGGPSVFLFPPKPKDTLMISRTPEVTCVVVDVSHEDPEVKFNWYVDGVEVHNAKTKPREEQYNSTYRVVSVLTVLHQDWLNGKEYKCKVSNKALPASIEKTISKAKGQPREPQVCTLPPSREEMTKNQVSLSCAVKGFYPSDIAVEWESNGQPENNYKTTPPVLDSDGSFFLVSKLTVDKSRWQQGNVFSCSVMHEALHNRFTQKSLSLSPGK
light: DIQLTQSPSTLSASVGDRVTITCRASESLDNYGIRFLTWFQQKPGKAPKLLMYAASNQGSGVPSRFSGSGSGTEFTLTISSLQPDDFATYYCQQTKEVPWSFGQGTKVEVKRTVAAPSVFIFPPSDEQLKSGTASVVCLLNNFYPREAKVQWKVDNALQSGNSQESVTEQDSKDSTYSLSSTLTLSKADYEKHKVYACEVTHQGLSSPVTKSFNRGEC
RTCC EC50 (nM), KILR HL-60 T Cell Redirection cytotoxic assay with CD33-expressing target cells [4]: 1.48 nM

— US20260167721A1 (ABLEXIS, published 2026)
